# Reference: patent publication US20260210939A1, “MODIFIED OLFACTORY RECEPTORS” (GIVAUDAN SA, priority 2022, published 2026)
# What was measured:
# OR7C1 = target: T1, OR7C1 (Homo sapiens, UniProt O76099, D296E/G302K/M297V/R299D/T295K/V126I); assay: CRE-luciferase assay, HEK293T cells expressing OR7C1 (wild-type / modified C-terminus); assay type: cell-based; details: OR7C1 variant, 1 μM Ambermax
# T1 construct: Improved functional expression of modified OR-genes containing the truncated, optimized C-terminus; expressed in transfected cells; host or cells: HEK293T stably expressing human RTP1S(V227I) and RTP2(L220R)
# T1 sequence (O76099 with tags, fused parts or gaps V126I/T295K/D296E/M297V/R299D/G302K): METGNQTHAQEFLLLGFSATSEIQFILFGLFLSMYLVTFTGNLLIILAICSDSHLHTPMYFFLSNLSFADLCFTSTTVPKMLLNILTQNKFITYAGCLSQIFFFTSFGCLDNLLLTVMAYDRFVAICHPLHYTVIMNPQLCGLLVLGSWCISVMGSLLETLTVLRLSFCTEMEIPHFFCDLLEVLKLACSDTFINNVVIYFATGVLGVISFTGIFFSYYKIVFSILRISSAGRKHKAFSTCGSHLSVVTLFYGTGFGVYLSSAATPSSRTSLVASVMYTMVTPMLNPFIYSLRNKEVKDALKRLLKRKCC
# Text: To test for possible variants of the sequence […]CC (SEQ ID NO: 86) leading to similar improved functional expression, different point mutations were introduced into the first 16 amino acids of this sequence (corresponding to […], SEQ ID NO: 10) and the variants were fused after the TM7 with OR7C1. […] The test concentrations were selected to fall into the range of partial activity of the wild-type sequence.
# OR7D4 = target: T2, OR7D4 (Homo sapiens, UniProt Q8NG98, D296E/E302K/G299D); assay: CRE-luciferase assay, HEK cells expressing OR7D4 (wild-type / modified C-terminus); assay type: cell-based; details: OR7D4 variant; for EC2 (concentration for 2-fold luciferase induction) / EC2 Fold-improvement vs. wild-type: Androstenone
# T2 construct: Improved functional expression of modified OR-genes containing the truncated, optimized C-terminus; expressed in transfected cells
# T2 sequence (Q8NG98 with tags, fused parts or gaps D296E/G299D/E302K): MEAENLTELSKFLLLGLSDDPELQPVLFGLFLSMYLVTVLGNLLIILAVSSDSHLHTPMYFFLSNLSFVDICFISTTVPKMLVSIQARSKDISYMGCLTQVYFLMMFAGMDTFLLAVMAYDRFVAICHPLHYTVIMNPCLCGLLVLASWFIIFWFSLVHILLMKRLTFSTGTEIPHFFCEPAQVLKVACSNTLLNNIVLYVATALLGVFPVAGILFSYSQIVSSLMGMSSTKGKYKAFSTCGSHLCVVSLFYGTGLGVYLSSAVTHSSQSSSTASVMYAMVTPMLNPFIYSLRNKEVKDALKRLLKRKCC
# Text: Random permutations of the general C-terminal sequence RN[KR][EDQ][VMIL][KR]KA[LIV][KRH][KR][LI][LIF][KRG][KR][KR]CC (SEQ ID NO: 822) linked to OR7D4 were generated based on degenerate oligonucleotides for the C-terminal domain. For this experiment, the MfeI/XhoI fragment from pcDNA3.1(+)-mmLucy-FLAG-rho-OR7D4 containing the CMV promoter and the OR coding sequence was used to replace the EcoRI/SalI fragment of pRDVCCB-CMV-dCas9-VPH-2A-Blast (Cellecta, Inc., Mountain View, USA). Complementary degenerate oligonucleotides were then used to replace the coding region of the C-terminal domain of […] (between Bsu36I and NotI). Random clones were selected, sequenced and tested for a correct open reading frame. A total of 55 clones were obtained with the correct open reading frame of […] and a permutation of the general sequence RN[KR][EDQ][VMIL][KR]KA[LIV][KRH][KR][LI][LIF][KRG][KR][KR]CC (SEQ ID NO: 822) as the C-terminal domain. All the different clones were compared to the wild-type sequence by the functional assay in HEK cells with the ligand Androstenone tested in a dose-response test.
% of the activation by the optimized sequence RNKEVKDALKRLLKRKCC (OR7C1),EC2 (concentration for 2-fold luciferase induction) (OR7D4),EC2 Fold-improvement vs. wild-type (OR7D4),Substance,further results
2.1%,,,Ala Ala,
167.7%,,,Arg Arg,
139.9%,,,Arg Gly,
2.0%,,,Arg Lys,
130.8%,,,Arg Phe,
83.9%,,,Arg Pro,
72.0%,,,Arg Tyr,
142.3%,,,Cys Gly,
100.5%,,,Cys Phe,
0.0%,,,Gln Glu,
85.0%,,,Glu Arg,
153.0%,,,Glu Lys,
126.8%,,,Gly Cys,
91.4%,,,Gly Leu,
1.6%,,,His Asp,
114.6%,,,His Pro,
0.0%,,,Ile Ala,
3.5%,,,Lys Ala,
181.7%,,,Phe Arg,
103.8%,,,Phe Phe,
75.6%,,,Pro Ala,
142.3%,,,Pro Arg,
211.8%,,,Pro Gln,
111.9%,,,Pro Gly,
36.2%,,,Pro Pro,
119.1%,,,SEQ ID NO: 87 (RNREVKDALKRLLKRKCC; source 1..18: note = C-terminal domain sequence),
66.5%,,,SEQ ID NO: 88 (RNKEIKDALKRLLKRKCC; source 1..18: note = C-terminal domain sequence),

% of the activation by the optimized sequence RNKEVKDALKRLLKRKCC (OR7C1),EC2 (concentration for 2-fold luciferase induction) (OR7D4),EC2 Fold-improvement vs. wild-type (OR7D4),Substance,further results
76.7%,,,SEQ ID NO: 89 (RNKEMKDALKRLLKRKCC; source 1..18: note = C-terminal domain sequence),
117.4%,,,SEQ ID NO: 90 (RNKEVRDALKRLLKRKCC; source 1..18: note = C-terminal domain sequence),
140.8%,,,SEQ ID NO: 91 (RNKEVKKALKRLLKRKCC; source 1..18: note = C-terminal domain sequence),
81.3%,,,SEQ ID NO: 92 (RNKEVKEALKRLLKRKCC; source 1..18: note = C-terminal domain sequence),
95.3%,,,SEQ ID NO: 93 (RNKEVKNALKRLLKRKCC; source 1..18: note = C-terminal domain sequence),
176.6%,,,SEQ ID NO: 94 (RNKEVKRALKRLLKRKCC; source 1..18: note = C-terminal domain sequence),
122.1%,,,SEQ ID NO: 95 (RNKEVKVALKRLLKRKCC; source 1..18: note = C-terminal domain sequence),
115.3%,,,SEQ ID NO: 96 (RNKEVKAALKRLLKRKCC; source 1..18: note = C-terminal domain sequence),
128.4%,,,SEQ ID NO: 97 (RNKEVKQALKRLLKRKCC; source 1..18: note = C-terminal domain sequence),
120.1%,,,SEQ ID NO: 98 (RNKEVKDAVKRLLKRKCC; source 1..18: note = C-terminal domain sequence),
,0.008 µM,225.85,SEQ ID NO: 290 (RNKDVKKALRRLFGKKCC; source 1..18: note = C-terminal domain sequence),
,0.113 µM,15.28,SEQ ID NO: 291 (RNKELKKAIKRLIRRKCC; source 1..18: note = C-terminal domain sequence),
,0.018 µM,94.88,SEQ ID NO: 292 (RNKDVRKAVKRLLKKRCC; source 1..18: note = C-terminal domain sequence),
,0.068 µM,25.22,SEQ ID NO: 293 (RNKELRKAIRRLLRRRCC; source 1..18: note = C-terminal domain sequence),
,0.008 µM,224.95,SEQ ID NO: 294 (RNRDIRKALRKLFKKKCC; source 1..18: note = C-terminal domain sequence),
,0.033 µM,51.89,SEQ ID NO: 295 (RNRELKKALRRLLRRRCC; source 1..18: note = C-terminal domain sequence),
,0.003 µM,525.05,SEQ ID NO: 296 (RNREVKKALRRLFGKKCC; source 1..18: note = C-terminal domain sequence),
,0.005 µM,337.39,SEQ ID NO: 297 (RNRDVRKALKRLLKRKCC; source 1..18: note = C-terminal domain sequence),
,0.011 µM,162.22,SEQ ID NO: 298 (RNRDMRKAIRKLFGRKCC; source 1..18: note = C-terminal domain sequence),
,0.093 µM,18.62,SEQ ID NO: 299 (RNRELKKAIRKLLKRKCC; source 1..18: note = C-terminal domain sequence),
,0.020 µM,87.76,SEQ ID NO: 300 (RNRDIRKAVKKLFGKKCC; source 1..18: note = C-terminal domain sequence),
,0.013 µM,128.57,SEQ ID NO: 301 (RNKEVKKAIRKLFGRRCC; source 1..18: note = C-terminal domain sequence),
,0.014 µM,126.99,SEQ ID NO: 302 (RNREVRKAVRKLFRRKCC; source 1..18: note = C-terminal domain sequence),
,0.011 µM,150.37,SEQ ID NO: 303 (RNRDMKKALKKLFRRRCC; source 1..18: note = C-terminal domain sequence),
,0.006 µM,292.59,SEQ ID NO: 304 (RNRDVRKALKRLLGRRCC; source 1..18: note = C-terminal domain sequence),
,0.017 µM,103.17,SEQ ID NO: 306 (RNKDVRKAVRRLFGRRCC; source 1..18: note = C-terminal domain sequence),

Substance,% of the activation by the optimized sequence RNKEVKDALKRLLKRKCC (OR7C1),EC2 (concentration for 2-fold luciferase induction) (OR7D4),EC2 Fold-improvement vs. wild-type (OR7D4),further results
Ala Glu,2.1%,,,
Gly Gly,128.9%,,,
SEQ ID NO: 305 (RNKDLKKAVKKLFGRKCC; source 1..18: note = C-terminal domain sequence),,0.131 µM,13.15,Fold induction luciferase (OR7D4; 0.1 μM Androstenone): 1.63; Fold induction luciferase (OR7D4; 1 μM Androstenone): 10.13
